Where no end group is shown, it is not given here. [ ]: non-standard residue; d: D form. pT = C[C@@H](OP(=O)(O)O)[C@H](N)C(=O)O
Assays:
[1] = target: T1, N-terminal Smac/DIABLO(1–15) peptide; test: ITC
T1 sequence (Q9NR28 22-36, species assumed, looked up): LCVPVVANFKKRCFS

Survivin 1-142 = Survivin 1-142 (UniProt O15392); test: peptide-bead pull-down, Coomassie stain
Survivin H80A mutant = Survivin H80A mutant (human, UniProt O15392 1-142, H80A); test: ITC
Survivin E63A mutant = Survivin E63A mutant (human, UniProt O15392 1-142, E63A); test: ITC
Chain of Survivin E63A mutant (O15392 whole entry E63A): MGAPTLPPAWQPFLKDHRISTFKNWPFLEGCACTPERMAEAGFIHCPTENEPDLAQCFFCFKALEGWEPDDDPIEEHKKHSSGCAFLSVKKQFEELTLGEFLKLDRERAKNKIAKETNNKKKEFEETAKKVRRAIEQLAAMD

Survivin L64A mutant = Survivin L64A mutant (human, UniProt O15392 1-142, L64A); test: ITC
Chain of Survivin L64A mutant (O15392 whole entry L64A): as the sequence (O15392 whole entry E63A) above, with A63E, L64A counted along it

Survivin W67A mutant = Survivin W67A mutant (human, UniProt O15392 1-142, W67A); test: ITC
Chain of Survivin W67A mutant (O15392 whole entry W67A): as the sequence (O15392 whole entry E63A) above, with A63E, W67A counted along it

Chain of human Survivin (wild type) (O15392 whole entry): as the sequence (O15392 whole entry E63A) above, with A63E counted along it
Chain of Survivin H80A mutant (O15392 whole entry H80A): as the sequence (O15392 whole entry E63A) above, with A63E, H80A counted along it

**Q.** Which Kd [1] does the source give for “Survivin(K62Y/H80W) double mutant (from UniProt O15392 1-142) (natural protein)” here?
**A.** 19.8 µM

**Q.** And the dH [1]?
**A.** -4.44 kcal/mol

**Q.** How did the “binding against the reference” value (Survivin 1-142; reference: unmodified H3 peptide beads, sites T3) turn out when “histone H3 (from UniProt P68431) H3T3ph peptide beads” was run?
**A.** same

**Q.** “histone H3 (from UniProt P68431) S10ph H3 peptide beads (T3 state not stated)” was tested. Which “binding against the reference” value (Survivin 1-142; reference: H3 peptide beads without S10ph, sites S10) did it give?
**A.** same

**Q.** For “human Survivin (wild type) (from UniProt O15392 1-142) (natural protein)”, which Kd [1] is on record?
**A.** 121 µM

**Q.** What about the dH [1] of the same molecule?
**A.** -3.48 kcal/mol

**Q.** For AR[pT]KQTARKSTGGKA (peptide, UniProt P68431 2-16, looked up) [H3(1–15)T3ph peptide], which Kd (Survivin H80A mutant) is on record?
**A.** > 200 µM

**Q.** What about the Kd (Survivin E63A mutant) of the same molecule?
**A.** > 200 µM

**Q.** And the Kd (Survivin L64A mutant)?
**A.** > 200 µM

**Q.** And the Kd (Survivin W67A mutant)?
**A.** > 200 µM

— paper PMC3684423 (Structure (London, England : 1993), 2012)
